Experimental findings from the DeepSol protein solubility set are described below.

A short description of this series: soluble on expression in E. coli; label from the status in PepcDB or PDB records.
For the sequence “MGSDKIHHHHHHMNAPAHDNGRLALMLNELRLPTIGRLWPEFAERSDKEGWPATRLLGALLEHELAERAKRRIERHRTESHLDPTKTLATFDFGMVPMVSKAHVTALATGESWLEKGATILLFGPPGAGKSHLGSAIGHALIDAGYRVLFTRTSELVQKLQAARQSLQLPSALAKLDRFDLIILDDLSYARKDQAETSVLFELIAERYERKSLLITANQPFSGWNDVFPDPGMTVAAIDRLVHHSTIFELNVESYRRRKASDKQSARRRQLPDDNYEGGATIMN”, the “soluble on expression in E. coli” value was “not soluble”.

For the sequence “MELLLLSNSTLPGKAWLEHALPLIANQLNGRRSAVFIPFAGVTQTWDEYTDKTAEVLAPLGVNVTGIHRVADPLAAIEKAEIIIVGGGNTFQLLKESRERGLLAPMADRVKRGALYIGWSAGANLACPTIRTTNDMPIVDPNGFDALDLFPLQINPHFTNALPEGHKGETREQRIRELLVVAPELTVIGLPEGNWIQVSNGQAVLGGPNTTWVFKAGEEAVALEAGHRF”, the “soluble on expression in E. coli” value was “soluble”.

Turning to “MSLITDLFKRRIHQMEEKKKKNIGFNIIKSDPTDGHGGFGGGSLSLDNVSPVFVDVEAGDAHVDIGAMHARSTVEKGIKFLTNQEDVPNGKPYWLVWVTIDRKQEGPYYAGVTACFMTVDREIRRGYKLLPEHVNRLDKSIKRHIIVDHMDDKSKGILADFLKNHDMGMWERAEDQLKKDLASSEGHHHHHH”, the “soluble on expression in E. coli” value is listed as “soluble”.

With “MAHHHHHHMNTSLSNNENENNFFIKSFFESLSNFIKNIKIEIKDTFELLNYPCVYQNSKKKFSVSENEDYKNSLTTNVISKIDKKNIENFRVYQKELHNILQNIKTFNEKYKLDVPLLSIMENLIILHLINEYKINNIVKKIQEHNIPMPELNSDLPDYLIPTLELEENQNESNLNVSISEINNLSINNNAVKHILENAQLKVDFSKLVKLNGENHLNSSSINPSSELNEKSDELTLYKKDDKIHNLTHDIKEEINNERNEDQYLNRSHNNEDEKHTLMTSKKEEKVNLIQNIGLSEETLKLLNLLPKKRKNDQN”, the “soluble on expression in E. coli” value is listed as “not soluble”.

With “MSLAKKNYILVIDDDVMMSQTISDFIHGKGYHVIVCNNLEEAFSELSQYKIDLILINFWQPDGTALILLEHLNEEKITTPVIVISNTKEHQSVLECFRMGVLDFVVKPINLEIFWYKVECLLTRVKLQHEVKLQRVELEKMLYEKAREEKMARNLFEHLVNIDNTQFEFVRTFCQASANFSGDIILKGLAPNGNFFLMPEFNSEVRHSTIKQLIGEEGHHHHHH”, the “soluble on expression in E. coli” value is recorded as “soluble”.

On to “MGSDKIHHHHHHMWFKNLMTYRLTKPLDWDLAQLQTQLEDCQFHPCGTQDQSKFGWSAPLRGSDLLYFSVGKQILLIAKKEEKILPANVVKRELDDRIESLEQKENRKLKKVEKQTLKDDVVMNLLPRAFSKNQHTALWIDTENNLIHIDAASSKRAEDALALLRKSLGSLPVVPLAFANEPSTILTNWILQDNLPHWLLALEEAELRGSQEDSVIRCKKQPLENEEILALLQDGKKVVSKLALEWEDTLTFVFNEDCTIKRLKFADTVREKNDDILKEDFAQRFDADFVLMTGILAKLTENLLDEFGGEKARL”, for which the “soluble on expression in E. coli” value is on record as “not soluble”.

Regarding “MGSDKIHHHHHHMGKKTTIAIAHSDADLGKPAEYTRDQLDLVKAMIRQIADQTMGGMGNIVHKGDKVLIKINTVIPVPANAGFTTDPRMLEALIELVQEQNPGRIQIGERCAMGADTMEAMRVCGIVDVAERTGVELCPFEHAEFDMYKIDRPISFNEFPVPRPVRDADCYIGLPKMKVHVHTTFTGAMKLQFGNLPNYDWMVRCHRDDIYQKIVNLTRAANPKWFVMDSLYACQGNGPFSPYSEDLIKDFNTICGGPDPVAVDTVCEALMDWDYPGTNVPSTVLGAAEGLGTNRMNEIELAGAPLDKVKRRFKRQNTILQGQYPNVNLVMGSTCEAGCKAIVRIQLDQLQADGTLERLEKPITIFTGLQFEEHINKVEGDVLIVGDCAKGMLEKFPDARYWGDCEEYPNCTPIWANRPDVGIANYVRQLTAVREGNAR”, the “soluble on expression in E. coli” value is listed as “not soluble”.

Regarding “MKAVIAKNEEQLKDAFYVREEVFVKEQNVPAEEEIDELENESEHIVVYDGEKPVGAGRWRMKDGYGKLERICVLKSHRSAGVGGIIMKALEKAAADGGASGFILNAQTQAVPFYKKHGYRVLSEKEFLDAGIPHLQMMKD”, the “soluble on expression in E. coli” value is “soluble”.

As for “MSKNKNDYEHMLFYFAYKTFITTADEIIEQYGMSRQHHRFLFFINKLPGITIKELLITLEISKQGSHATLRKLKEEGLIVEQTSKQDRRVKKLFTTEAGDDLIGKLNQAQDELIQQTLQKVGHDWYAMMEELANYREGFKTIEHLKED”, the “soluble on expression in E. coli” value is “soluble”.

In the case of “MSQLSPKNKNDLRQCVLYEFIDGKPVFEAYKSFCDVIGDSCMDYVDFEFWFMRFANGNLNLDFNFDKSSSLSIFNIPIEILVKIMNELDWVSRLSMRQVSRAFRSIVDEESKMPKSLSFGFYDDTVFLQYDDSCVKYKDLEEEGHDDKIDIALFDFGVTLINPRLKLDYFEVLIDAKHGLDIDSDKCFKSLEALLKARNLPLPVKNVNIETNSGYEMNHAKNIIPYLKSGVLEKIVTNCDSSSFENIEIMKEIVELDQWKQAKHLEIDSLVKIPIENFLHFEHFELFFEHLCFQDVKERLLESSNFRHCTLQVMNSFDLEELAANFGIQYMGDDEGIRQTTFYEISTNSLEMTMFLDFVTFDRKF”, the “soluble on expression in E. coli” value is listed as “not soluble”.

For “MAHHHHHHMSSVSAAPQLSPKVIPGCSNTHSNSGLPTILSDLGTFAYQSACYGPQQLLACSSAVTNAGEVIFVYDMNSMLLTQSLSGHKAAVTALLWRPPPASYLQTGLFLWSGDARGALMYWDVVEGVALTSIQTPCHAAVQSLTLLTDEHLLVVTQEGAGYVFNSHLVDNTPLPPGRLLLETKQSTLLGNISRPSLVACSRLNDQHCCAVVLGDRLRILTAIQLDSGATAPVAKDLIYDSCDGAPTVVDVFFSDAQEEVLYFATRNTVGCYDWKLRLMLNESLLWLPDEVEFRRIFRSCSSGAAARTAASRSQESTASSSGDAAAAQVPLMYSFGSDQRLVAWHVTRHDRFTAVLTDVRGARINAKLCVNVVQSELDSSMFAVLFEDGSIVHWQYSPLARRWKLLDCWLAPVVRPVTFCPVGAHHCCVALESGHLALMDITHSMAVRRLTWSTLAERRLCCCAGTSGATLSGSCRTASNSTATTTKSR”, the “soluble on expression in E. coli” value is “not soluble”.

“MNNQQAAIASARSRMAAGGQPQGATPGQPDQNFDYMFKLLIIGNSSVGKTSFLFRYCDDSFTSAFVSTVGIDFKVKTVFRGDKRVKLQIWDTAGQERYRTITTAYYRGAMGFILMYDITNEESFNSVQDWCTQIKTYSWENAQVVLVGNKCDMDSERVVSMDRGRQLADQLGLEFFETSAKENINVKAVFEKLVEIICDKMAESLDKDPQQQPKGQKLEANPTQKPAQQQCNC”: the “soluble on expression in E. coli” value is “not soluble”.

For “MGSDKIHHHHHHMDCSKASTDTEKMICASSRLQQLDAVLNKAYQGYVKKADKAQARQEQRTWLAERDRCKDDVCLGNEMVSRIQALSGSENISVITQASGQWDFILSVATCNLDSSYSTCEGPGTLDIFKKGSGDLFQRITMENLFIELNNKGEVTANLVEVYGENNSGLVIDDANFDHHADIMLRNGNNGAYGGPSYDVYLFDVEKQQFTQNAPLTELASSNLGLFDIDEKSKTITTFTKSGCCWHQWSAYQMANNKPVLIVETTEAYSEEKQAMVATTRELVSGKWKVKEEIVKIDEQ”, the “soluble on expression in E. coli” value is “not soluble”.

For the sequence “MVLTGVTSKAIRKGDAEPPLSKGSFRVYNMRFCPWAERAMLYVAAKGIEAEVVNLNVTDKLEWYWTKHYQGKAPAVEHNGKVVIESGFIPEYLDDAFPETRILPTDPYEKVQQKLLADRLTAVAHAVPLLFAVMRDRTLKDEKQRKVFEVLKQAENLLANDFYAGSQPGYPDYLSFPFFEKIWWSASLDGVVDLPTIEFPGEEEYPKLTKWFQKMISSDVVQSVTQSLEHGAAFMNAYATHQELNYDLGL”, the “soluble on expression in E. coli” value is “not soluble”.

Regarding “MTEPVHPIADLTDSLLGWASQTELELAQRLAGGGLVIAAGLSDDELERIERLYGIFLTRQLLAGADFAALIGVSPALTLTTLVARARRVVEIDDFVSEFLGGLGLATDESSVIDIDEATAAIMGAIPQSLARFELLGAQEATDALSAIVSLCTQAGIVNNEVPALLEYLDAVNAEGTVSSEDLVAAIAQQENLPLLATALQIAPAAITELIDGVAAVRQFAVDHHDSWFDRSREHLTPLLPRPIEFSVVSELRERPVGTVDREASVGVASREMRPRILFDADRSKVYLRLPEQRLPIADDGTRGEITWRVSIEGTTKIYHTGSPWGDTSGFAESLDVHIERPVRELTVQDETNEITWTVPVLAHDDPALVFSSRGTNVTDKVALHHQSLIVVTPQDVTLTDVVSGDDIVADSETAVEGWDKWVARYLDVSHVTSLSAVEPGKNANMETLRSIDPRQRVRFLAPSEPVDFLKTTGGLPVHSESLIAEFPPTPSGRTE”, the “soluble on expression in E. coli” value is “not soluble”.

Take “MGSDKIHHHHHHMKKYMRTCSPRLAKEKYCTGCMACSDACTHDAIKIVEKNCMPFVKVDTHKCMNCHLCEKACPIITPVKKNRAEEMNVYGGWANDEQTRIDAASGGGFSGLAQSFFHLHKEDKVAVIGATLANNRVYHQLIEQEKDIVLLTNSKYIQSDTQGIYKEVIERLKTGYWILFSGCPCQIAGLYGFLGKKRDSERLITIEVVCHGIASYEALDLHLKYYNSSRIYRFRDKRHGTQDWKQSQCTTIEQNGEEIKLKRKDDMFYAIYAGWMLDRKSCSNCQFAEINRVADITIADFWGLQVPDYYKQGVSLIIANNNKADTMIKAADAIYTFKESLRTAINGNPHLFTGYKLIQFHPIVMWPDFFRKILPKRIRFKILTNRMPYKLFWALYKLGTIYLVKYQKKQLISKFQKDDNLLKLLNNANRGGGKMA”: the “soluble on expression in E. coli” value is “not soluble”.

For the sequence “MDLKSTKKTWKIPSFNQMWGKITSHIGVWFGLEEAERPMRASCSLSMIHHPQLTAVRSSKSSENLHRITTMSPQRIQDVDGSPSTRKPSSSIFTLRRSRNKEKKYKNNGGGGSTKSPISKNGTNEMTQSWHSNHVNGASSGSGSGSTPEHHNKNIFSFLSRQSRSRSNNPSETMSTVPLNKNSPSMPPPPSSNTVADFTHLRRRRPRSAHYDPNTITLPAKEEVTPQDVNDLYKRIDKLGEGSYATVYKCESKLDGSIVALKEIKLQFQEGLPFTAIREASLLRNLRHANIVSLHDIFYQHHQLTFVFEYMKMDLSKYLEQNVYGLDSIDIKLLLFQLLRGLDFCHRKKILHRDLKPQNLLLDEDGVLKLADFGLARAKSVPSRTYSHEVVTLWYRPPDVLMGSTDYSTSLDMWGVGCIFAEICTGAALFPGSKDSHYPGTKDQLDMIFSIRGTPDEKKWPEVKTLPGYTPELFPRYRELSFIAVNPMFTKILKTGQELLGMLLQLRPESRVSAASAMLHPYFASFPREVHLLAPSQSIFRLKELKDLRSL”, the “soluble on expression in E. coli” value was “not soluble”.

With “MLPDADSKDQLVTIIQSVKPPTVPPHRSHDPANNLKRTDPYQFGSRYLEEGDDVFEFNAWDHVEPDDEFKAFAEVQYAKQRESPVSDFDKQRFNKDPAKWWNLFYKNNTSNFFKDRKWLRQEFPVLAEVTQKGAGRKVVLEVGAGAGNTAFPLITHNKNEELMVHACDFSKTAVQVMRESEHYNPKFISADVWDVTAVPDEENNGLPPGLTEGSVDVVILIFIFSALAPSQWDQAIRNVYRVLKPGGLVLFRDYGRGDLAQVRFKKGRYMDENFYVRGDGTRVYFFEKEQLEKMWGTWTPEKGLQMAEDNSIVAESEGAFDVEKIGVDRRLIVNRQRKLKMYRCWIQAHYRKRETPAAVEAEKADS”, the “soluble on expression in E. coli” value is recorded as “not soluble”.

On to “GSHMSAEASARPLRVGSRVEVIGKGHRGTVAYVGATLFATGKWVGVILDEAKGKNDGTVQGRKYFTCDEGHGIFVRQSQIQVFEDGADTTSPETPDS”, for which the “soluble on expression in E. coli” value is “soluble”.

Regarding “GAMGNICNSGGVSRTYSPPTSPVYGSGVSSPSRFVGQYTLTSIHQLSSEERENFLDAHDPMRVYDLNSETSVYRTTQREYVRNGYATGNPNSGAIIALHEELQESPYAQHIGARPDQADAYRPRTAHVSSLNTPSLNVMAGQGALSALRGYAGSDHVTTEMRLGDFLDQGGKVYSDTSAMSAGGDSVEALIVTLPKGRKVPVNILD”, the “soluble on expression in E. coli” value was “soluble”.
